How the values were obtained:
Experiment in all cases: MST
Pcf1-ΔWHD;Pcf2;Pcf3 = biological target: T1, Pcf1-ΔWHD;Pcf2;Pcf3 (Schizosaccharomyces …, UniProt Q1MTN9;O13985;Q9Y825 1-470;1-512;1-408, del471-544||)
T1 sequence 1: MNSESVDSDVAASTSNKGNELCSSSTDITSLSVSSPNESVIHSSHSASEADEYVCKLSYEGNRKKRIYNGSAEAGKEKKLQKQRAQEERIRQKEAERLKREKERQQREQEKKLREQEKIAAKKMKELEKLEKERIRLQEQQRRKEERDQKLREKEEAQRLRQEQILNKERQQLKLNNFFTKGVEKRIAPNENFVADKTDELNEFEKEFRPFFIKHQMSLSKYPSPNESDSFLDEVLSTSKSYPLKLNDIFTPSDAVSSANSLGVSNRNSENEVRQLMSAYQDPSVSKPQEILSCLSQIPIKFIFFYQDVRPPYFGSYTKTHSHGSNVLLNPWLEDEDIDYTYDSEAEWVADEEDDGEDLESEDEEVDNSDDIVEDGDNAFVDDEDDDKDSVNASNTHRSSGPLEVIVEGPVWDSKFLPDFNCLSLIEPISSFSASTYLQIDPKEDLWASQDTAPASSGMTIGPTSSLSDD
T1 sequence 2: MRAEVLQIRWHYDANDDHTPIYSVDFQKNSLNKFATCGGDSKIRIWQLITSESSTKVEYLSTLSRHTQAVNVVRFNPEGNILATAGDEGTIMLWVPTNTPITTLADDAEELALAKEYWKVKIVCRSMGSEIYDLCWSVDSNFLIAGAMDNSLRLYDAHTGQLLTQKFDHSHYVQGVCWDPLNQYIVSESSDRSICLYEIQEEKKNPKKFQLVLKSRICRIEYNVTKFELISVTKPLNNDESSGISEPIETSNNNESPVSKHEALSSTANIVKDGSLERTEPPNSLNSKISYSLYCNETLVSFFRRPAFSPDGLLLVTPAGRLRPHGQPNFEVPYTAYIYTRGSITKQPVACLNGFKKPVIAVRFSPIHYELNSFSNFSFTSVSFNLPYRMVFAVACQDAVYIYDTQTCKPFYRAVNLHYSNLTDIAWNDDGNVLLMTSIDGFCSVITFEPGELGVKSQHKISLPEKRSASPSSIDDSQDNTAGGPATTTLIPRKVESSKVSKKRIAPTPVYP
T1 sequence 3: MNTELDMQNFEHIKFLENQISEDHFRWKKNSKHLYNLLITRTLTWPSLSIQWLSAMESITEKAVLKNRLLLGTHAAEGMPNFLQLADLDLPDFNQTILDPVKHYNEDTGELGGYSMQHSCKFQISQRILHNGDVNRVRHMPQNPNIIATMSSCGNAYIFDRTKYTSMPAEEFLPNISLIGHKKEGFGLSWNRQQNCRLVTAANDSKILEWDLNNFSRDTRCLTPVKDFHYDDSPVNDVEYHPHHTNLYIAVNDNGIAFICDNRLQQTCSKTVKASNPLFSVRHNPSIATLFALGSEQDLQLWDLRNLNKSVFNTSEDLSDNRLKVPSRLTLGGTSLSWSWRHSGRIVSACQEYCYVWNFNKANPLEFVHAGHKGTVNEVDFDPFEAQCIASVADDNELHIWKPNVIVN

Pcf1-KER*;Pcf2;Pcf3 = biological target: T2, Pcf1-KER*;Pcf2;Pcf3 (Schizosaccharomyces …, UniProt Q1MTN9;O13985;Q9Y825 1-544;1-512;1-408, R147E;K150E;K154E;R161E;K168E||)
T2 sequence 1: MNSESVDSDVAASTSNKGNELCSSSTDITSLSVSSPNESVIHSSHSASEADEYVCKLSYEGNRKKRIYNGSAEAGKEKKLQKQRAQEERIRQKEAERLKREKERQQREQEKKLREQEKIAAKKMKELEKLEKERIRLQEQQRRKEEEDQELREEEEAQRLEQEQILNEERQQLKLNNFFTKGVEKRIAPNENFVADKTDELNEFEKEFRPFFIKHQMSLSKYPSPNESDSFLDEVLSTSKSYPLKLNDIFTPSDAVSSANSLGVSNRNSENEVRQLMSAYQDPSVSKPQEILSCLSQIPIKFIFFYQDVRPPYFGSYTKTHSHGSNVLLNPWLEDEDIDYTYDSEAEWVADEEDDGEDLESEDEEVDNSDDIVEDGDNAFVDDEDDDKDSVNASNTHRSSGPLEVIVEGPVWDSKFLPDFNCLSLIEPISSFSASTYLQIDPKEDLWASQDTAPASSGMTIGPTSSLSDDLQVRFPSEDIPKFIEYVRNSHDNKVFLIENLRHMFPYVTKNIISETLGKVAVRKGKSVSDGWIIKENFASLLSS
T2 sequence 2: T1 sequence 2
T2 sequence 3: T1 sequence 3

Pcf1_KER* = biological target: T3, Pcf1_KER* (Schizosaccharomyces pombe, UniProt Q1MTN9 56-170, R147E;K150E;K154E;R161E;K168E)
T3 sequence: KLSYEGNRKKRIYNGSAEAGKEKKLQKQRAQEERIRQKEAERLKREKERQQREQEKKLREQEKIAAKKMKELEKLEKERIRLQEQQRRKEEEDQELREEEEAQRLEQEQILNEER

Pcf1_KER-PIP = biological target: T4, Pcf1_KER-PIP (Schizosaccharomyces pombe, UniProt Q1MTN9 56-185)
T4 sequence: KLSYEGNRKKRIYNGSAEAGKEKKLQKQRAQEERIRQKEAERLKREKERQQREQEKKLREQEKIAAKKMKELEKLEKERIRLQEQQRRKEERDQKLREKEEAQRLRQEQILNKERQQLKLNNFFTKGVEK

B1: 40 bp dsDNA, Alexa488 (dsDNA)
DNA 1: ATCAATATCCACCTGCAGATACTACCAAAAGTGTATTTGG
DNA 2: CCAAATACACTTTTGGTAGTATCTGCAGGTGGATATTGAT
Pcf1-ΔWHD;Pcf2;Pcf3
  apparent K (half saturation): 700 ± 100 nM
Pcf1-KER*;Pcf2;Pcf3
  apparent K (half saturation): 2800 ± 400 nM
Pcf1_KER*
  apparent K (half saturation): 12.2 ± 0.7 µM
Pcf1_KER-PIP
  apparent K (half saturation): 1900 ± 300 nM
